# Assay: soluble on expression in E. coli; label from the status in PepcDB or PDB records
row,Sequence,soluble on expression in E. coli
1,MMITRELVLKANREQPPYASILALAASGFSLEKSVQFSEKQQLALNLDGELLSNDVEIARIIAQSTDAADSLLGSSIIDFAVVDDLTNFIADAVTKNDYSLLLGKDFPTKILDNSLTVADFAIFSVAHNNPQLKAKFSGIIDKVLKEPTLAAAHNFVGLYKSAAAPTATASTGKEKKKDEGKFVELPGAEKGKVVVRFPPEASGYLHIGHAKAALLNQYYQQAFEGQLIMRFDDTNPAKENAHFEHVIKEDLSMLNIVPDRWTHSSDHFEMLLTMCEKLLKEGKAFVDDTDTETMRNEREQRQDSRNRSNTPEKNLQLWEEMKKGSPKGLTCCVRMKIDMKSNNGAMRDPTIYRCKPEEHVRTGLKYKVYPTYDFTCPIVDSVEGVTHALRTTEYHDRDDQYYFICDALGLRRPHIWEYARLNMTNTVMSKRKLTWFVDEGHVEGWDDPRLPTVRGVMRRGLTVEGLKQFIVAQGGSRSVVMMEWDKIWAFNKKVIDPVAPRYTALDSTSPLVSIELTDSISDDTSNVSLHPKNAEIGSKDVHKGKKLLLEQVDAAALKEGEIVTFVNWGNIKIGKIEKKGAVITKISATLQLDNTDYKKTTKVTWLGDVKAEAGKTIPVVTADYDHIISKAIIGKDEDWKQFINFDSVHYTKMVGEPAIKNVKKGDIIQIQRKGFYIVDQPYNPKSELSGVETPLLLIAIPDGHTGKEAEKPPKGAPVSAAASSGGSDALQLYNSIEQQGGIVRDLKTKDAKSQATKDAIAKLLDLKKKYKELTGSDHKPGAPPSAPAPTTPSSSESNSALNIYNLIEAQGLLVRELKGKDAKSQATKDAIAKLLELKKQYKEVSGSDHKPGVPPAASVASAPAPAPAAGSTNALDIYHQIESQGALVRELKGKDAKSQATKDAIAKLLALKKQYKEVTGSDHKPGVVPVSAPAPTPLAGGADIAGQIEAQGVLVRDLKNKDSKSQETKDAIAKLLELKKNYKEVTGSDYKPGPAPAAAPAKVTVPAPSVSGGDTLSKQIDDQALLVRELKMKDAKSQETKDAIAKLLQLKKQYKDATGSDYKPAPAQLAASAAAAPAPAPAFDEAALLKEIEEQGAVVRDAKSKDPKSQDSADAINKLLALKANFKKATGKDFPAPSNAQSKKGKKK,not soluble
2,VASGYGGIRVGGPYFDDLSKGQVFDWAPGVTLSLGLAAAHQSIVGNRLRLALDSDLCAAVTGMPGPLAHPGLVCDVAIGQSTLATQRVKANLFYRGLRFHRFPAVGDTLYTRTEVVGLRANSPKPGRAPTGLAGLRMTTIDRTDRLVLDFYRCAMLPASPDWKPGAVPGDDLSRIGADAPAPAADPTAHWDGAVFRKRVPGPHFDAGIAGAVLHSTADLVSGAPELARLTLNIAATHHDWRVSGRRLVYGGHTIGLALAQATRLLPNLATVLDWESCDHTAPVHEGDTLYSELHIESAQAHADGGVLGLRSLVYAVSDSASEPDRQVLDWRFSALQF,soluble
3,MGSDKIHHHHHHMMNKPAPRELEVIRSTYITPHMLRITLGGAGLAGFPADQESAYIKLLFPQAGERPLMRTYTIRQQRDDEIDVDFVLHDTDGPASSWAKTAQVGELIQIGGPGLKKLINFEADWFLLAGDMTALPAISVNLAKLPNNAVGYAVIEVLSEADIQPLVHPEHVELHWVINPEADPEGRPLVERIAQLPWLAGEPAVWIACEFNSMRALRRHFKQAHALPKSHFYTSSYWKIGCNEGEHKLVKQEDEQLENGASV,not soluble
4,MEVYMKKLINDKNNIVEEVVQGMIKAFPNKVSRVENEPIIIRKNKKVNKVALISGGGSGHEPAHAGYVGYGMLDAAVCGEIFTSPGADKVYSAIKAVDAGKGVLLIIKNYSGDVMNFEMAGEMAQAEGITVKQVVVDDDIAVENSTYTVGRRGIAGTIFVHKILGAAAEKGYDLDKLVELGNKVVKNLKTMGMSLKPCTVFTTGKESFEIADDEVEIGLGIHGEPGTHREKMTTANEFTKKLFEKIYAESNVQNGDRFAVLVNGLGETTLIELFIINNHLQDLLKDKRIEVAKTLVGNYMTSLDMGGFSISLLKLDKEMEELLNAEEDTIAFLEHHHHHH,soluble
5,MARASGASDYRSGELSHQDERGAAHMVDITEKATTKRTAVAAGILRTSAQVVALISTGGLPKGDALATARVAGIMAAKRTSDLIPLCHQLALTGVDVDFTVGQLDIEITATVRSTDRTGVEMEALTAVSVAALTLYDMIKAVDPGALIDDIRVLHKEGGRRGTWTRR,soluble
6,MGHHHHHHSHGATLIRDRLKTEPFEENSFLEQFMIEKLPEACSIGDGKPFVMNLQDLYMAVTTQEVQVGQKHQGAGDPHTSNSASLQGIDSQCVNQPEQLVSSAPTLSAPEKESTALCRDLSCQRSRGRSQGVSSVNLLWPQLLRMDLENSFQASP,not soluble
7,MLYLHDVWVNWFEGEENGYNVCHFYEWRKDDTIELLDQVPLLKVDATLYHYIENELLELPQKMLKTYIIRLIFVKIMNVCSKSIALLLQNGKGIIAIDTIGYNVPIRKSRLIPRQEQMVYEMVENVQAEKYEFQVEETEKEHHILSPSPFIMNGLTRKERQLKQLLFMALDQLHTTKNTAEIRYWFTEWDPSAYGMVQHMEFEDIWAKLYDEAKTGWSDKHEQLCERLVKGQPFFEKLWEMENEQKVN,not soluble
8,MGSDKIHHHHHHMLMELTTTSHALKEWAVAVNALESGKTIMLLRKGGIHERNGNFQVAHKQILLYPTYEHQQAFMLKPEYANRVYPVTSGWHPETVRIGSWAEITDILPISDEFLVNALLPFHIWNEHFISDRLKWKPRQPLYILLLRTYKLTQDQEIPYHPKYGGCKSWIDLDQSINLQETTPALSDFAYTQLVQTIRGIVGDKMARKIDMLNYNSTFS,not soluble
9,MAVPSGVHRCFFRGQSVSLEKLLSIFASEVCEQVVFIGENHEHSVAQQLELRILEALWLSSQRQNRQLLLSLEFLDRSQQHVLNEAMLRDEIESVVPEPYVPLVRFARTNNLAVLAANAPRSITSRVAKQGQQAVMETLSPKERAWCAPTPWPAPSNAYSEAFQAIMQQVMRPDPSSAQAQQERMQRMLQAQSLWDATMAFSIAEALERYPKAQVLHVTGFFHVANRLGTVEMLAHYRNTVNALVSIVYPEELQHSTSALDGDVVIYAP,not soluble
10,MRKLTLPKDFLWGGAVAAHQVEGGWNKDGKGPSICDVLTGGAHGVPREITQNVVAGKYYPNHEAVDFYGHYKEDIRLFAEMGFKCFRTSIAWTRIFPNGDESQPNEAGLKFYDDMFDELLKYNIEPVITLSHFEMPLHLVQHYGGWTNRKVVDFFVRFAEVVFERYKHKVKYWMTFNEINNQRNWRAPLFGYCCSGVVYTEHENPEETMYQVLHHQFVASALAVKAARRINPQMKVGCMLAMVALYPFSCKPEDVMFAQESMRERYVFTDVQLRGYYPSYVLNEWERRGFNIKMEDGDLEVLREGTCDYLGFSYYMTNAVKAEGGSGDAISGFEGSVPNPYVKASDWGWQIDPVGLRYSLCELYERYQKPLFIVENGFGAYDKVEEDGSINDDYRIDYLRAHIEEMKKAVTYDGVDLMGYTPWGCIDCVSFTTGQYSKRYGFIYVNKHDDGTGDMSRSRKKSFNWYKEVIASNGEKL,not soluble
11,MSLNKKMIFFDIDGTIVDEKTHVIPEGTIAAIKKARSNGHLVFINTGRTFFNVPDSIRQIGFDGYVCGCGTYIHINGQTLLEKSISHKRCVEIVEKLRECKLDALLEGQKDFFFDQREPVSEKTLELKSKFGKRGYDVSKSWDDSDIVFDKFVIWTRKESNLEAFKSHISNDFDYIDREDEEGEFGEIVLKGYSKATGIKFLQDYFNIPIEDCYALGDSLNDLPMLQYVPNSIAMGNSSKGLFDLVAFVTKDIMEDGIEYALKHYNIIEGHHHHHH,soluble
12,MGSDKIHHHHHHESSFLNLSDPNYFTESNFWKDKADAESALAAAYSPIKGAMYGYFGAFDGWLNLNGRGDDIYTIKGEEVPMWNIANFLNSPSTGNDPYGALYSGIQRANIVLRYIDQIPASGITEEDRSMIKGEALFLRGYQYFLLVNNYKEVPLRLIPSNEDETNKAAATEAALWAQVEEDLDNAIKCNLPVERSTAKERITKGAAIAMLGKVYATQHKYPEAKQLLGTLLKAPYSYELMDNFEKNFTNEEEFNKESVFELAYSPDGDYSWSNESGICLGCYIPQFIGPVKSGGWAKLMPNSLIVGEFTKETRPSDADTKFDKRMYASLFFDAANYGDKVPNEKWYGNNYSMDDLWEGNEGKMAGGAPSFNVNGTAGKFLIKKNTAYYVDDKAPDNMGNKEGRSSNLRVMRFAEVLLLYAEACAKTNDPDGANYALKQIRQRAGLTEKTFAQAELMNEIEHQCLLEFFAEGHRFDDLKRWYSPSEIQLIFKANGKQGAENFQEKHLYYPIPTSELNNNTAMEQTSLWK,not soluble
13,MKRYGNLYQEIINFENILIASRQAQKSKRFRDNVLDFNYHLETELIKLQKHLTDKTYQPGAYRTFRLTNPKSRLISAAPYRDRVVHHALCNIIVPIFERAFVADSYANRIGFGTHRALKKFTHSARNSPYVLQCDIRKYFPSIDHIILKELIRRKIKCPDTLWLIDTIIDNSNEQETVIDYFAGDDLLSPITRRKGLPIGNLTSQFFANIYLNGFDKIIKEELKISKYVRYVDDFALFSDDRELLADARLAIEAYLAELRLKIHPIKSQLFETKIGATFLGFRIFSHKIRVRNSNLHQARRRLKRLKTDYAQGKLELNQVTQSMRSWIAHLEHGDTWRLRKQIFTSLHFRRKLEHHHHHH,soluble
14,MGSDKIHHHHHHMLLHFVPINVFRETPQVSFFDAGVNGSNGADVVIHHKNAISPPDDGNFEQYYIHNHQVDHNLVIEGSRKFTLINPKWDEPHHVIFLNRAMGALQIPIGTYHRSESGKEGSIVLNQATRDDMFDQRKEFSPVSLRSNKQLRKARQAHPVYWIWEEERIKRVKLDCKGYSKNIKLEPLKTAH,not soluble
15,MKRILNYPGSKWGLADLIIENMPEHKSYLEPFCGSCAVFMNKQKATLETINDLDGRLVNLFKTMRDNPEELQYLIMHTLYSREEYMLSHEISSDSLEDARRMAVRLWFAVGGKTNANVGFRKNVSWNGPYNAYEWNDMYNRIGIAAARLKDAQIENVDAIKLIEQHNDKDTLIYCDPPYVATSLASSHYQHDFSLEQHKELLKVLKKHEGKVMLSGYESELYKQELSDWPALKTMTKVGITSEKKSDRQEIIWCNFEPPMQLNLFKEEQA,not soluble
16,GMTLTRDSLLTLEAYAKVRRQEHARVIAHKKRRAVSIGNHLRLLFEDETTIRYQIHEMLHIEKIFDEDGIQAELDAYLPLVPDGSNLKATLQIEYENETQRRAALARLVGIEDRVFLRVDDEAPVYAIADEDLERDTAEKTSAVHFLRFELGDAMKAKLKAGAPLSIGCDHPHYPIQAARIDPDVAASLAGDLD,soluble
17,MAHHHHHHMGGGGSIPRKKATSARQVSTDRSVRRLQTKRRVGEPRFNGIGYVTIPLCIQEDLPPPPEDDDAPDDSTRKFAWFVEDLDMPGEWELYPPDACERLDEARRSNMTECLVVVKKRMCTVNLVKMEHLCAGSNARPRQVKRVEVEVSNGTTTYQEKRKVPNDPFAEDSPRETPSPMELFESEENAVHDVGSATTTKAEPEKVPNLVRSILTEKTTSYAMSLTSNGTTVFSGTKAQMLRWDLKTAEVTAEFDVQDSVVLSNALSHDERHVVAGRSDCTASMHSVDGSTSCVFSGHQRKVYGVDFLLGDDRVATASMDCTVRIWDASTSTCVQTIGCSAASVFTVVTSDLNNHFALSAGDDNIIYAHDLRSGGDCVIDRFIDHASTVWCCALRNDEQVFASCGIDGVIRVWDIRNSSSPTLLLRHHEKPVHMVKFTPRGRAILSCGRDDNMRLTDAMTGEPLWRAVAHRRFVYRIAFSKEKKFILSSGGDHRVNVWNYDYIDRM,not soluble

# From the DeepSol protein solubility set
